25 molecules from patent publication US20240269278A1 (NANJING SHUNXIN PHARMACEUTICALS CO LTD OF CHIATAI TIANQING …, published 2024) can be followed below.

Substitutions are numbered along the chain they refer to. Names may count otherwise.

The chains are these.
B1: Xi14A9 (antibody, human IgG4 S228P, kappa, V domains shown)
VH: EVQLQQSGAEVARPGASVKLSCTVSGFNIEDDYIEWVKQRPEQGLEWIGRIDPANDKTKYAPKFQDKATITGDTSSNTAYLQLSSLTSEDTAVYYCTRPGLRRYYSMDYWGQGTSVTVSS
VL: NIVLTQSPKSMSMSVGERVTLSCKASENVVSYVSWYQQKPEQSPKLLIYGASNRYTGVPDRFIGSGSSTDFTLIISSFQPEDLADYHCGQSYSYPLTFGAGTKLELKR
notes: Chimeric: mouse VH on human IgG4 (S228P, EU) constant region, mouse VL on human kappa constant region; made in CHO cells; also called chimeric version of 14A9
B2: hz3F10-4.1 (antibody, human IgG4 S228P, kappa, V domains shown)
VH: QVQLVQSGAEVKKPGSSVKVSCKASGYTFSRYWIEWVRQAPGQGLEWMGEFIPGSDTTNYAQKFQGRVTITADISTSTAYMELSSLRSEDTAVYYCARGGLRRMDYWGQGTLVTVSS
VL: DIQMTQSPSSLSASVGDRVTITCRASSSVSSTYLHWYQQKPGKAPKLLIYTTSTLASGVPSRFSGSGSGTSYTLTISSLQPEDFATYYCQQFSESTWTFGQGTKLEIKR
notes: Humanized 3F10, full-length heavy and light chains, made in CHO cells
B3: hz3F10-4.2 (antibody, human IgG4 S228P, kappa, V domains shown)
VH: B2 VH with D73E, S77N
VL: B2 VL
notes: as for B2
B4: hz3F10-6.1 (antibody, human IgG4 S228P, kappa, V domains shown)
VH: B2 VH
VL: B2 VL with L48W
notes: as for B2
B5: hz3F10-1.2 (antibody, human IgG4 S228P, kappa, V domains shown)
VH: B2 VH with D73E, S77N
VL: B2 VL with S71D, Y72F, E94D
notes: as for B2
B6: hz3F10-3.2 (antibody, human IgG4 S228P, kappa, V domains shown)
VH: B2 VH with D73E, S77N
VL: B2 VL with E94D
notes: as for B2
B7: hz3F10-6.2 (antibody, human IgG4 S228P, kappa, V domains shown)
VH: B2 VH with D73E, S77N
VL: B2 VL with L48W
notes: as for B2
B8: hz3F10-5.2 (antibody, human IgG4 S228P, kappa, V domains shown)
VH: B2 VH with D73E, S77N
VL: B2 VL with L48W, E94D
notes: as for B2
B9: hz3F10-5.1 (antibody, human IgG4 S228P, kappa, V domains shown)
VH: B2 VH
VL: B2 VL with L48W, E94D
notes: as for B2
B10: hz3F10-2.2 (antibody, human IgG4 S228P, kappa, V domains shown)
VH: B2 VH with D73E, S77N
VL: B2 VL with S71D, Y72F
notes: as for B2
B11: hz3F10-2.1 (antibody, human IgG4 S228P, kappa, V domains shown)
VH: B2 VH
VL: B2 VL with S71D, Y72F
notes: as for B2
B12: hz3F10-1.1 (antibody, human IgG4 S228P, kappa, V domains shown)
VH: B2 VH
VL: B2 VL with S71D, Y72F, E94D
notes: as for B2
B13: hz16E5-1.2 (antibody, human IgG4 S228P, kappa)
heavy: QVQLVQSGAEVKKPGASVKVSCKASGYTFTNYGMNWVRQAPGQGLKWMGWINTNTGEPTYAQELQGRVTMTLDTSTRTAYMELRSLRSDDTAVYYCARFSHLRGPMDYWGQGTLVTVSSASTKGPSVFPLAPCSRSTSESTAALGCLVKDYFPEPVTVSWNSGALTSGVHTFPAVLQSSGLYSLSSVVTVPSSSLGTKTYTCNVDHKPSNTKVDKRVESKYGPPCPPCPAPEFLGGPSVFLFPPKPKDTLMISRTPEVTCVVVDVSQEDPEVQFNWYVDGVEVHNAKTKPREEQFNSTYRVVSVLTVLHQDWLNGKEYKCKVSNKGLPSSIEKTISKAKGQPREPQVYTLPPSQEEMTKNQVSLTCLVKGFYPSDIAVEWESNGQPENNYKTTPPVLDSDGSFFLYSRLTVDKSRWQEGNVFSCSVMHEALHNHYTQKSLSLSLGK
light: DIQMTQSPSSLSASVGDRVTITCRSSQSLVHSNGYTYLHWYQQKPGKAPKLLIYKVSNRFSGVPSRFSGSGSGTDFTLTISSLQPEDFATYYCSQSTHVPPTFGQGTKLEIKRTVAAPSVFIFPPSDEQLKSGTASVVCLLNNFYPREAKVQWKVDNALQSGNSQESVTEQDSKDSTYSLSSTLTLSKADYEKHKVYACEVTHQGLSSPVTKSFNRGEC
notes: Humanized 16E5, full-length heavy and light chains, made in CHO cells
B14: hz16E5-3.3 (antibody, human IgG4 S228P, kappa)
heavy: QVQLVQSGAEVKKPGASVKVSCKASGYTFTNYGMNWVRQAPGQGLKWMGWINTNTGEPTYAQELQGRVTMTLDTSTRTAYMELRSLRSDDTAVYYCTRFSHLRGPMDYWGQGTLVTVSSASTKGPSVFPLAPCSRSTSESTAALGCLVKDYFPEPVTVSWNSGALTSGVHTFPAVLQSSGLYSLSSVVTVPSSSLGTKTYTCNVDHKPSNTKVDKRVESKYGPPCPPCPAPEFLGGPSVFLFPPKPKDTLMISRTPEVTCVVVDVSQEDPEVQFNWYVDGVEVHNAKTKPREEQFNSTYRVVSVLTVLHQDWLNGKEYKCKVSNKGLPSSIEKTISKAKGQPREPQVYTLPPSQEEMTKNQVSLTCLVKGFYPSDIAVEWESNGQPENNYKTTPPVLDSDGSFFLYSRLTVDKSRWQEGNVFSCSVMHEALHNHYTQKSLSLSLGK
light: B13 light with I2A
notes: as for B13
B15: hz16E5-1.1 (antibody, human IgG4 S228P, kappa)
heavy: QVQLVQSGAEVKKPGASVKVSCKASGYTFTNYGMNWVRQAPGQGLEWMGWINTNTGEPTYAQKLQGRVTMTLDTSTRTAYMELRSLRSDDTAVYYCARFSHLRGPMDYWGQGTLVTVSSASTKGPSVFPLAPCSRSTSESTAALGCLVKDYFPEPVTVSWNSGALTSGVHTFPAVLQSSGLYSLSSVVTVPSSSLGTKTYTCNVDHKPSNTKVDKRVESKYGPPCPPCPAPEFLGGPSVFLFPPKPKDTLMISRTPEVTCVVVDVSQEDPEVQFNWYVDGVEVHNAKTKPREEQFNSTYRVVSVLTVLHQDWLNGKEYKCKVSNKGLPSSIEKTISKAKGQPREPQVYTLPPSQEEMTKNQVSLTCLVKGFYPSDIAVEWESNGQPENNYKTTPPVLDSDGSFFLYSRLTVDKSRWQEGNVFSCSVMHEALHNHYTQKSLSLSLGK
light: B13 light
notes: as for B13
B16: hz16E5-3.1 (antibody, human IgG4 S228P, kappa)
heavy: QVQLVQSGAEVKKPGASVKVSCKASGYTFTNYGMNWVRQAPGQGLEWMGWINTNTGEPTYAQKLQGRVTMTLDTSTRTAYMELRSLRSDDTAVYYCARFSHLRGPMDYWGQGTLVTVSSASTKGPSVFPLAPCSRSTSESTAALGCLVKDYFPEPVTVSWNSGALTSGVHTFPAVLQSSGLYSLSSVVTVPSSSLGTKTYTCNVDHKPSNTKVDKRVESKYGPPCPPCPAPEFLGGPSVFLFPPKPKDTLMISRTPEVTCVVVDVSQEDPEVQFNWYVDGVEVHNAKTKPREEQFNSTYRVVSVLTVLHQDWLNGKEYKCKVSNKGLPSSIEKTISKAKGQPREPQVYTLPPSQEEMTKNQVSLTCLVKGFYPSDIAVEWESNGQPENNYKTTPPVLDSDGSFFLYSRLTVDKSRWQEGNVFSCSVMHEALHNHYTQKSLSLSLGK
light: B13 light with I2A
notes: as for B13
B17: hz16E5-3.2 (antibody, human IgG4 S228P, kappa)
heavy: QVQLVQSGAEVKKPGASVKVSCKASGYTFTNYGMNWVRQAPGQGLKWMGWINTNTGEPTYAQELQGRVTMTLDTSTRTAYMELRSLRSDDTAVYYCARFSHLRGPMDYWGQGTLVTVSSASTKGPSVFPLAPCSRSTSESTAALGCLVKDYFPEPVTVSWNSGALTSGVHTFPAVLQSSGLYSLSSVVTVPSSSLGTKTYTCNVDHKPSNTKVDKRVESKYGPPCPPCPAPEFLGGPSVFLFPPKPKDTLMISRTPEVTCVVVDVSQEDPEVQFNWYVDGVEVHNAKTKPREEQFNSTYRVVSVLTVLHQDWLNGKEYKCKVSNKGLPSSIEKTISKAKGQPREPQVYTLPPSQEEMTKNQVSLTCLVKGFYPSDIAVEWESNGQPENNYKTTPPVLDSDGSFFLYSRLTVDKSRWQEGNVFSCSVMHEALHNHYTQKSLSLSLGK
light: B13 light with I2A
notes: as for B13
B18: hz16E5-1.3 (antibody, human IgG4 S228P, kappa)
heavy: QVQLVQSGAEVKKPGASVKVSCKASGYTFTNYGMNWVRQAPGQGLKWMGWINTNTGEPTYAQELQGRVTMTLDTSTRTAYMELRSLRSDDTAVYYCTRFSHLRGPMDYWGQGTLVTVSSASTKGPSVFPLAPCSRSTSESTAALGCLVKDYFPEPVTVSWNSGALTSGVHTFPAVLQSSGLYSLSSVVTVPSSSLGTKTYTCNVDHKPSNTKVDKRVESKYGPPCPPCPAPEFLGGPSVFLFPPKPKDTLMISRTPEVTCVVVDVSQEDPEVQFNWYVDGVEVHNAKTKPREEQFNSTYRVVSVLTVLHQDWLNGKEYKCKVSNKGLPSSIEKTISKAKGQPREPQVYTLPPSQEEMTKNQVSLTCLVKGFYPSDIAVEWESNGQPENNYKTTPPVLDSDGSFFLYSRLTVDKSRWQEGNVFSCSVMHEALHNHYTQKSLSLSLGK
light: B13 light
notes: as for B13
B19: hz14A9-2.3 (antibody, human IgG4 S228P, kappa, V domains shown)
VH: QVQLVQSGAEVKKPGASVKVSCKVSGFNIEDDYIEWVRQAPGQGLEWMGRIDPANDKTKYAQKFQGRVTMTGDTSTNTVYMELSSLRSEDTAVYYCARPGLRRYYSMDYWGQGTLVTVSS
VL: DIQMTQSPSSLSASVGDRVTITCKASENVVSYVSWYQQKPGKAPKLLIYGASNRYTGVPSRFIGSGSSTDFTLTISSLQPEDFATYYCGQSYSYPLTFGQGTKLEIKR
B20: hz14A9-2.4 (antibody, human IgG4 S228P, kappa, V domains shown)
VH: B19 VH with A97T
VL: B19 VL
B21: Xi3F10 (antibody, human IgG4 S228P, kappa, V domains shown)
VH: EVQLQQSVAELMKPGASVKIYCKATGYTFSRYWIEWVKQRPGHGLEWIGEFIPGSDTTNFNEKFKGKATFTAEISSNTAYMQLSSLTSEDSAVYFCARGGLRRMDYWGQGTSVTVSS
VL: DIVMTQTPAIMSASPGEKVTMTCRASSSVSSTYLHWYQQKSGASPKLWIYTTSTLASGVPARFSGSGSGTSYSLTISSVEAEDAATYYCQQFSDSTWTFGGGTKLEIKR
notes: Chimeric: mouse VH on human IgG4 (S228P, EU) constant region, mouse VL on human kappa constant region; made in CHO cells; also called chimeric version of 3F10
B22: Xi2H8 (antibody, human IgG4 S228P, kappa, V domains shown)
VH: QVQLKESGPGLVAPSQSLSITCTVSGFSLTNYGVHWVRQPPGKGLEWLGIIWAGGSTNYNSALMSRLSISKDNSKSQVFLKMNSLQTDDTAMYYCARDDYASMDYWGQGTSVTVSS
VL: DAFMTQTPLSLPVSLGDQASISCRSSQSLVHSNGNTYLHWYLQKPGQSPKLLIYKVSNRFSGVPDRFSGSGSGTDFTLKISRVEAEDLGVYFCSQSTHVPYTLGGGTKLEIKR
notes: Chimeric: mouse VH on human IgG4 (S228P, EU) constant region, mouse VL on human kappa constant region; made in CHO cells; also called chimeric version of 2H8
B23: Xi16E5 (antibody, human IgG4 S228P, kappa, V domains shown)
VH: EVQLQQSGPELKKPGETVKISCKASGYTFTNYGMNWVKQVPGKGLKWMGWINTNTGEPTYAEEFKGRFAFSLETSARTAFLQINNLKNEDTATYFCTRFSHLRGPMDYWGQGASVTVSS
VL: B22 VL with F3V, N35Y, V83L, Y101P, L103F
notes: Chimeric: mouse VH on human IgG4 (S228P, EU) constant region, mouse VL on human kappa constant region; made in CHO cells; also called chimeric version of 16E5
B24: Xi2B2 (antibody, human IgG4 S228P, kappa, V domains shown)
VH: EVMLVESGGGLVQPGGSLKLSCAASGFTFSNYYMSWVRQTPEKRLEWVAYISSGGGSTYYPDSVKGRFTISRDNAKNTLYLQMSSLKSEDTAMYYCAWFAYWGQGTLVTVSA
VL: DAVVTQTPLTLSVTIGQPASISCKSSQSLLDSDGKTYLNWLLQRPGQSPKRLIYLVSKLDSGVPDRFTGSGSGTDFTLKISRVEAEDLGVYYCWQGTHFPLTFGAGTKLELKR
notes: Chimeric: mouse VH on human IgG4 (S228P, EU) constant region, mouse VL on human kappa constant region; made in CHO cells; also called chimeric version of 2B2
B25: hz3F10-3.1 (antibody, human IgG4 S228P, kappa, V domains shown)
VH: B2 VH
VL: B2 VL with E94D
notes: as for B2

The first experiment concerns the target T1, cynomolgus/rhesus macaque CD47 protein, His Tag (ACRObiosystems, Cat. No. CD7-C52H1) (cynomolgus monkey, UniProt A0A2K5X523 19-139).
T1 construct: Bought protein; also called Cynomolgus monkey CD47 protein; not shown: His tag
Description: Biacore SPR, antibody captured on CM5 chip, CD47-His protein, 25 C. As for the experimental part: (§1) The equilibrium dissociation constants KD (in unit M) were obtained by measuring the binding kinetics of the human CD47 protein (human CD47 protein, His Tag; ACRObiosystems, Cat. No. CD7-H5227) and cynomolgus monkey CD47 protein (cynomolgus/rhesus macaque CD47 protein, His Tag; ACRObiosystems, Cat. No. CD7-C52H1) to anti-CD47 antibodies (chimeric or humanized) using Biacore. The Biacore analysis was performed at 25° C. and data were recorded at a rate of 1 Hz.
(§2) At the beginning of each cycle, the diluted test antibody (1.5 μg/mL) was injected onto the experimental flowcell and maintained for 1 min to be captured.
Background: In SPR one partner is held on a chip, and binding of the other changes the refractive index at the surface.
In the case of B1, the equilibrium dissociation constant (Kd) worked out at 1.58 nM.

In the case of B2, the Kd is 1.62 nM. Still for that read-out and setting: next, B3: 1.86 nM; B4: 2.47 nM. For B5, the Kd is 1.33 nM. In the case of B6, the dissociation constant (Kd) came to 1.47 nM. The Kd values of the last two molecules are within 1.5-fold of each other.

For B7, binding was put at a Kd of 1.15 nM. Still for that read-out and setting: with B8 the figure was 1.4 nM; with B9, 1.3 nM; with B10, 1.14 nM. Same read-out and setting: next, B11: 1.17 nM; B12: 1.31 nM; B13: 2.26 nM. The same measure, in the same setting: with B14 the figure was 1.87 nM. In turn, B15 displayed a dissociation constant Kd of 4.77 nM.

In turn, B16 displayed a dissociation constant (Kd) of 3.28 nM. This Kd and that of the molecule before are within 1.5-fold of each other.

Consider B17, for which the dissociation constant Kd stood at 3.1 nM. This Kd and that of the molecule before are within 1.5-fold of each other. Still for that read-out and setting: next, B18: 2.73 nM. Consider B19, for which the affinity, expressed as Kd, was 3.07 nM. Same read-out and setting: next, B20: 2 nM. Same read-out and setting: with B21 the figure was 1.04 nM. On the same count and under the same terms, next, B22: 1.25 nM; B23: 2.92 nM. Regarding B24, binding was characterised by a dissociation constant (Kd) of 1.2 nM.

The target of a further experiment is T2, human CD47 protein, His Tag (ACRObiosystems, Cat. No. CD7-H5227) (human, UniProt Q08722 19-139).
T2 construct: Bought protein; also called hCD47-His Tag protein; not shown: His tag
T2 sequence (Q08722 19-139 limits assumed): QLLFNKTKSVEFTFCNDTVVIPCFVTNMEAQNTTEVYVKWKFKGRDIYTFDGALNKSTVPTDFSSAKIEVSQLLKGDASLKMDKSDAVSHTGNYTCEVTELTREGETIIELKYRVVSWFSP
The description is as above. As for the experimental part:
as §1, §2
For the molecule B1, binding was characterised by a dissociation constant (Kd) of 2.35 nM. In the case of B25, the Kd was 1.53 nM. Against the preceding molecule, the Kd is about 1.5-fold lower.

B2 returned a Kd of 1.42 nM.

For the molecule B3, the Kd came out at 1.34 nM. The same measure, in the same setting: with B4 the figure was 0.592 nM; with B5, 0.904 nM. The same measure, in the same setting: next, B6: 1.15 nM. Still for that read-out and setting: next, B7: 0.765 nM; B8: 0.896 nM; B9: 0.96 nM. Turning to B10, the Kd amounted to 0.779 nM. B11 had a Kd of 0.836 nM. With B12, the Kd is 0.946 nM. On the same count and under the same terms, next, B13: 9.31 nM. In the case of B14, the dissociation constant (Kd) amounted to 7.13 nM. In turn, B15 registered a Kd of 18.9 nM. On the same count and under the same terms, with B16 the figure was 6.28 nM. Same read-out and setting: next, B17: 17.1 nM. As for B18, the equilibrium dissociation constant (Kd) worked out at 15.3 nM.

The molecule B19 came in with a dissociation constant (Kd) of 0.204 nM. On the same count and under the same terms, next, B20: 8.55 nM. Same read-out and setting: with B21 the figure was 0.767 nM; with B22, 0.35 nM. Still for that read-out and setting: next, B23: 9.06 nM; B24: 7.48 nM.

What is called Kd is the concentration at which binding is half-saturated. The low end stands for higher affinity, the high end for lower affinity.
